Laboratory results reported in patent US20060280804A1.

Molecular target: angiotensin converting enzyme (ACE, EC 3.4.15.1, Sigma)
Experiment: cell-based or functional assay

ovalbumin grade VI (99% purity, Sigma), unhydrolysed (from UniProt P01012 2-386)
ACEI activity, IC50: > 750 µg/mL
